From PMC5458760, “The LOTUS domain is a conserved DEAD-box RNA helicase regulator essential for the recruitment of Vasa to the germ plasm and nuage” (Genes & Development, 2017) come the findings set out here.

The target of one data set is T1, Vasa 200–661 (Drosophila, UniProt P09052 200-661).
T1 construct: Vasa, Drosophila DEAD-box RNA helicase, helicase core with the C-terminal extension, residues 200-661; It may be the same preparation as His-Vasa 200–661; Construct details are in the Supplemental Material; also called Vasa helicase core; source: E. coli (Rosetta 2), purified
T1 sequence (looked up): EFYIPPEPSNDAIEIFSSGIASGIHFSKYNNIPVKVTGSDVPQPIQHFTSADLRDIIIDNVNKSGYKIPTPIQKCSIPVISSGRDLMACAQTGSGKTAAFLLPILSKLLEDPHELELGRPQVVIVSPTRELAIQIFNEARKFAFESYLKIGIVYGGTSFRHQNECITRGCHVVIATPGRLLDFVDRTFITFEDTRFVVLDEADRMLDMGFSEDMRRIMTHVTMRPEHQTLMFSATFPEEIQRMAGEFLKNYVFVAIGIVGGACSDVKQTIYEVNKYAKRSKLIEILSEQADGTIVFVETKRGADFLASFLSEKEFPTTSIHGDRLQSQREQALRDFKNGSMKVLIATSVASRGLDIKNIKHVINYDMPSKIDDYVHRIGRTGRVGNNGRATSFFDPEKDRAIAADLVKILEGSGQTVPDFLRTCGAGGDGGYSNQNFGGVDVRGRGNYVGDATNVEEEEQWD
As to the kind of experiment: pull-down; GST pull-down with purified recombinant proteins; GST or GST fusion as bait (8.75-10 µM in the legends), Vasa as prey (17.5-20 µM in the legends); samples on an SDS gel stained with Coomassie brilliant blue. As to conditions: both partners purified.

The next data set addresses T2, His-Vasa 200–661 (Drosophila, UniProt P09052 200-661).
T2 construct: Vasa, Drosophila DEAD-box RNA helicase, helicase core with the C-terminal extension, residues 200-661; Construct details are in the Supplemental Material; also called His-tagged Vasa 200–661; wild-type Vasa helicase core; source: E. coli (Rosetta 2), purified
T2 sequence (looked up): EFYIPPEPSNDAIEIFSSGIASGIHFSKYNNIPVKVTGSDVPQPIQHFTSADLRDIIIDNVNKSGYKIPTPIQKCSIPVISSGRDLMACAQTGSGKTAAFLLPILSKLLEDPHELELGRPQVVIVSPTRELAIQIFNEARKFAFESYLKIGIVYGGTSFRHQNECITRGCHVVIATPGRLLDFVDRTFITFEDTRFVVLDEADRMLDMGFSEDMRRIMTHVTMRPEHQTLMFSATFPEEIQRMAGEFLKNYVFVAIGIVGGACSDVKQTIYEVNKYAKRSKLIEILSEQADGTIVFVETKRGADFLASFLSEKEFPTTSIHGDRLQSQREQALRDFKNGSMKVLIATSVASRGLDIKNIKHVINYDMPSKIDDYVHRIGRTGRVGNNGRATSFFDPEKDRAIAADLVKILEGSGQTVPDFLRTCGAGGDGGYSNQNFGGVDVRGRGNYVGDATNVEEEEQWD
Described as above. As to conditions: both partners purified.

The target in another data set is T3, Vasa 463–623 (Drosophila, UniProt P09052 463-623).
T3 construct: Vasa, Drosophila, C-terminal RecA-like domain without the C-terminal extension, residues 463-623; also called Vasa-CTD lacking the C-terminal extension; Vasa C-terminal RecA-like domain; source: E. coli (Rosetta 2), purified
T3 sequence (looked up): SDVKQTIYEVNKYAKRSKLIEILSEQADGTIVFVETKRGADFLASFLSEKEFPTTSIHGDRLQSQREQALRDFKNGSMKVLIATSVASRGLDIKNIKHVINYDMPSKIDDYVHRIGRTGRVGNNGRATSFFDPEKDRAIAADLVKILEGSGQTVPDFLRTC
In words: crystal structure; Oskar 139–240 and Vasa 463–623 mixed in a 2:1 molar ratio; hanging drop vapor diffusion at 18°C; 1.4 Å; molecular replacement. As to conditions: both partners purified.

Data set [1] deals with the molecule itself. The data set is described as above.
The target of a further data set is T4, Vasa 463–661 (Drosophila, UniProt P09052 463-661).
T4 construct: Vasa, Drosophila, C-terminal RecA-like domain with the C-terminal extension, residues 463-661; Details are in the Supplemental Material; also called Vasa-CTD; source: E. coli (Rosetta 2), purified
T4 sequence (looked up): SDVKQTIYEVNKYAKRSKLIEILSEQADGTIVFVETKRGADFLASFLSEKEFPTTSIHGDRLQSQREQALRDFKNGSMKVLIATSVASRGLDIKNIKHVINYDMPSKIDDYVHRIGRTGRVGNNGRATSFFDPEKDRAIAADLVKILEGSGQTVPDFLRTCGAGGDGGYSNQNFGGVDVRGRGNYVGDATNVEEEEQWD
As to the kind of experiment: ITC; Vasa 463–661 titrated to the Oskar LOTUS domain (144–240); 25°C; VP-ITC; 20 mM Tris pH 7.5, 150 mM sodium chloride; curve fitted with the LOTUS monomer concentration. The note with it: both partners purified.

B1: GST-Oskar LOTUS (amino acids 139–240) (domain or fragment, Drosophila, UniProt P25158 139-240, looked up)
chain: MTIIESNYISVREEYPDIDSEVRAILLSHAQNGITISSIKSEYRKLTGNPFPLHDNVTDFLLTIPNVTAECSESGKRIFNLKASLKNGHLLDMVLNQKERTS
notes: Oskar, Drosophila, LOTUS (eLOTUS) domain with its C-terminal extension, residues 139-240; residue numbers are those of the long isoform; Construct details are in the Supplemental Material; also called Oskar GST-LOTUS; GST fusion of the LOTUS domain of Oskar; source: E. coli (Rosetta 2), purified
Consider B1, for which the binding result with Vasa 200–661 and in the data set with His-Vasa 200–661 was “binds” throughout.

B2: Oskar 139–240 (LOTUS domain) (domain or fragment, Drosophila, UniProt P25158 139-240, looked up)
chain: MTIIESNYISVREEYPDIDSEVRAILLSHAQNGITISSIKSEYRKLTGNPFPLHDNVTDFLLTIPNVTAECSESGKRIFNLKASLKNGHLLDMVLNQKERTS
notes: Oskar, Drosophila, LOTUS (eLOTUS) domain with its C-terminal extension, residues 139-240; residue numbers are those of the long isoform; This is a dimer in the crystal; No tag is stated for the crystallised protein; also called LOTUS domain of Oskar (amino acids 139–240); eLOTUS; source: E. coli (Rosetta 2), purified
As to B2, in the data set with Vasa 463–623, the binding result is recorded as “binds”. For the same molecule, the “stoichiometry N” value in data set [1] came out at 2.

B3: Oskar LOTUS domain (amino acids 144–240) (domain or fragment, Drosophila, UniProt P25158 144-240, looked up)
chain: SNYISVREEYPDIDSEVRAILLSHAQNGITISSIKSEYRKLTGNPFPLHDNVTDFLLTIPNVTAECSESGKRIFNLKASLKNGHLLDMVLNQKERTS
notes: Oskar, Drosophila, LOTUS domain, residues 144-240; residue numbers are those of the long isoform; The legend notes that the LOTUS domain of Oskar forms dimers (Jeske et al. 2015); The ITC curve was fitted with the monomer concentration; Details are in the Supplemental Material; also called Osk 144–240; Oskar 144–240 (LOTUS); source: E. coli (Rosetta 2), purified
Regarding B3, the Kd in the data set with Vasa 463–661 was about 10 µM.
